Results as given in US20080181886A1, “Polypeptides That Bind Baff And/Or April” (Genentech, Inc., priority 2004, published 2008).

T1: APRIL (Mus musculus, UniProt Q9D777)
T1 construct: made in house
T1 sequence (Q9D777 105-241): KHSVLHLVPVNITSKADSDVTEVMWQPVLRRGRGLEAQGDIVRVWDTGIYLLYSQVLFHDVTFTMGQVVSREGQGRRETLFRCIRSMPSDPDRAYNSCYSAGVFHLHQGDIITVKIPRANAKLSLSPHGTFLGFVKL


Assays:
[1] = system: NF-κB; experiment: NF-κB ELAM-luciferase reporter assay in co-transfected 293T cells; type: cell-based, Human; conditions: 293T cells co-transfected with ligand and receptor; 20 hr after transfection
Method: Human 293T cells were co-transfected with the indicated amounts of expression plasmids along with 250 ng of ELAM-luciferase reporter gene plasmid and 25 ng pRL-TK. 20 hr after transfection, reporter gene activity was determined with the dual-luciferase reporter assay system (Promega).

[2] = molecular target: T1, APRIL; experiment: Competitive surface plasmon resonance, APRIL binding to immobilized BCMA-Fc; parameters: species or system murine; conditions: competition with immobilized BCMA-Fc
Text: (§1) Surface plasmon resonance (SPR) measurements on a BIAcore 3000 instrument (Pharmacia Biosensor) were used to measure binding affinities of receptors to immobilized APRIL and BAFF by competition binding. […] In these experiments, receptors in solution competed for binding of ligand in solution at room temperature with immobilized BCMA-Fc. BCMA-Fc was coupled to flow cell 2 of a CM4 sensor chip, using the amine coupling protocol supplied by the manufacturer, at a high density (4500 resonance units) so that the initial rate of binding was linearly dependent on the concentration of free ligand. In all experiments flow cell 1 was ethanolamine-blocked and used as the reference cell. Washing with 10 mM HCl regenerated flow cells between sample injections. In order to determine the ligand concentration necessary to obtain the optimal for competition experiments, a preliminary binding study was performed for each ligand where two-fold dilutions of the ligand ranging from 400 nM to 6.25 nM were injected over the BCMA-Fc surface. […] The IC50 values were calculated using a four-parameter curve fit (y=((m1−m4)/(1+(m0/m3)̂m2))+m4) of the initial binding rates for the receptor/control (Vi/Vo) as a function of receptor concentration.

[3] = molecular target: T2, BAFF (Homo sapiens, UniProt Q9Y275); experiment: Competitive ELISA, BAFF; type: binding; conditions: data not shown
T2 construct: made in house

[4] = molecular target: T2, BAFF; experiment: Competitive surface plasmon resonance, BAFF binding to immobilized BCMA-Fc; conditions: competition with immobilized BCMA-Fc
Text: as §1

[5] = molecular target: T1, APRIL; experiment: Competitive ELISA, APRIL; type: binding, murine; conditions: data not shown

T2 sequence (Q9Y275 82-285 limits assumed): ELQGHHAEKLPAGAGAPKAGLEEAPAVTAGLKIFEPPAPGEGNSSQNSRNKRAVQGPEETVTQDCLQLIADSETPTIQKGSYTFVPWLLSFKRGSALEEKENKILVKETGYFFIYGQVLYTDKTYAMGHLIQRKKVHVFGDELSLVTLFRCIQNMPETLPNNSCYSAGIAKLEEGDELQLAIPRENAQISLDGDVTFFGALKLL

| affinity for APRIL, comparison in words [2] | binding to BAFF, in words [3] | affinity for BAFF, comparison in words [4] | binding to APRIL, in words [5] | Molecule | NF-κB activation by APRIL or BAFF [1] |
| --- | --- | --- | --- | --- | --- |
|  |  |  |  | shortTACI: TACI splice variant: first 20 residues, one tryptophan in place of the 47 residues encoding CRD1, then the rest of the protein (protein) MSGLGRSRRGGRSRVDQEERWSLSCRKEQGKFYDHLLRDCISCASICGQHPKQCAYFCENKLRSPVNLPPELRRQRSGEVENNSDNSGRYQGLEHRGSEASPALPGLKLSADQVALVYSTLGLCLCAVLCCFLVAVACFLKKRGDPCSCQPRSRPRQSPAKSSQDHAMEAGSPVSTSPEPVETCSFCFPECRAPTQESAVTPGTPDPTCAGRWGCHTRTTVLQPCPHIPDSGLGIVCVPAQEGGPGA | capable of mediating NF-κB activation |
| did not confer additional affinity | no improvement in binding | did not confer additional affinity | no improvement in binding | TACI_d1d2: residues 21-116 of the TACI extracellular domain (both CRDs) with a C-terminal His-tag (protein, UniProt O14836 21-116, looked up, fragment, extracellular domain C-terminal His-tag, residues 21-116 of the TACI extracellular domain (both CRDs) with a C-terminal His-tag) FPQGLWTGVAMRSCPEEQYWDPLLGTCMSCKTICNHQSQRTCAAFCRSLSCRKEQGKFYDHLLRDCISCASICGQHPKQCAYFCENKLRSPVNLPP |  |
